From US20200024322A1 (Eli Lilly, published 2020)
Numbered stars: 1 amine (or outer) side, 2 acyl side, 3 side chain; on linkers, the order of the positions; unused ones are H or OH. Square brackets hold non-standard residues; d marks the D form. Side chains are listed from the residue outwards. Ends that are not written are not given here. * marks the point of attachment. C20 diacid = O=C(O)CCCCCCCCCCCCCCCCCCC(=O)*; γGlu = O=C(O)[C@H](CCC(=O)[*:2])N[*:1]; Desaminotyrosyl = O=C(CCc1ccc(O)cc1)*; αMeF = C[C@](N)(Cc1ccccc1)C(=O)O; AEEA = NCCOCCOCC(=O)O; Aib = CC(C)(N)C(=O)O

Columns and labels:
human glucagon receptor = target: T1, human glucagon receptor (human, UniProt P47871 26-477); assay: SPA, [125I]-Gcg displacement, hGcgR membranes
T1 construct: whole, on cells; Used as crude membranes of stably transfected HEK293 cells; also called hGcgR; hGLcgR
T1 sequence (P47871 26-477): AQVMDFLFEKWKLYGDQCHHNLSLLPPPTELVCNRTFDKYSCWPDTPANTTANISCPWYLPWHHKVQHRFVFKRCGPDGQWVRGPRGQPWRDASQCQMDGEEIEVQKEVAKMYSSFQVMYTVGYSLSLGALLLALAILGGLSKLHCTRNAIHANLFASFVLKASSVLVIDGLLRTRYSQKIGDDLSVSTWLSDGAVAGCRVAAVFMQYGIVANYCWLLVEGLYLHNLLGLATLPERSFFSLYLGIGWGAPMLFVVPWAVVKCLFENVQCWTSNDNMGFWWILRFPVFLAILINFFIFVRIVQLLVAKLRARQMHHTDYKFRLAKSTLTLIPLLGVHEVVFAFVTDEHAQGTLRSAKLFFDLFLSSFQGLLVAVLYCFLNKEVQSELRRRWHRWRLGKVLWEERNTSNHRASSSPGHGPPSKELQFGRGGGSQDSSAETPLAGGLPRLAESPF

human GLP-1 receptor = target: T2, human GLP-1 receptor (human, UniProt P43220 24-463); assay: SPA, [125I]-GLP-1 displacement, hGLP-1R membranes
T2 construct: whole, on cells; Used as crude membranes of stably transfected HEK293 cells; also called hGLP1R; hGLP-1R

human GIP receptor = target: T3, human GIP receptor (human, UniProt P48546 22-466); assay: SPA, [125I]-GIP displacement, hGIPR membranes
T3 construct: whole, on cells; Used as crude membranes of stably transfected CHO cells; also called hGIPR
T3 sequence (looked up): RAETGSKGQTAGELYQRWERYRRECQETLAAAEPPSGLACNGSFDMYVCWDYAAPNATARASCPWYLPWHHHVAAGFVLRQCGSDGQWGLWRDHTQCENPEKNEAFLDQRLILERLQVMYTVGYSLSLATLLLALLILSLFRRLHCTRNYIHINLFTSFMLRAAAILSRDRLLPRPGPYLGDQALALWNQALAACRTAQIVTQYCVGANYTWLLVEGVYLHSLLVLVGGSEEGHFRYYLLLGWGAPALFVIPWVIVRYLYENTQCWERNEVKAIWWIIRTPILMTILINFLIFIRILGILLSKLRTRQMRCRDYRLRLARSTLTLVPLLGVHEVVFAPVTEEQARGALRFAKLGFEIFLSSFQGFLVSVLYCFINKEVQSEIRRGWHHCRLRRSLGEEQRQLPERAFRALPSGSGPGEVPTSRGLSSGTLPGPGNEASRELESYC

B1: Example 137 (peptide)
peptide: YXEGTXTSDYSIXLDKKAQXXFIEYLIEGGPSSGAPPPS
modifications: Aib2; αMeF6; αMeL13; K17((2-[2-(2-Amino-ethoxy)-ethoxy]-acetyl)2-(γ-Glu)-CO-(CH2)18-CO2H); Aib20; Aad21; C-terminal NH2
For B1, the Ki (human glucagon receptor) was 98.1 nM, the Ki (human GLP-1 receptor) was 1.24 nM and the Ki (human GIP receptor) was 0.0373 nM.

B2: Example 152 (peptide)
peptide: YXEGTXTSDYSIXLDEKAQXEFIXYLIEGGPSSGAPPPS
modifications: Aib2; αMeF(2F)6; αMeL13; K17((2-[2-(2-Amino-ethoxy)-ethoxy]-acetyl)2-(γ-Glu)-CO-(CH2)18-CO2H); Aib20; Aib24; C-terminal NH2
With B2 the Ki (human glucagon receptor) was 93.4 nM, the Ki (human GLP-1 receptor) was 48 nM and the Ki (human GIP receptor) was 0.117 nM.

B3: Example 189 (peptide)
peptide: YXEGTXTSDXSIXLDEKAQXEFIXYLIEGGPSSGAPPPS
modifications: Aib2; αMeF(2F)6; 4Pal10; αMeL13; K17((2-[2-(2-Amino-ethoxy)-ethoxy]-acetyl)2-(γ-Glu)-CO-(CH2)18-CO2H); Aib20; Aib24; C-terminal NH2
Binder B3 has a Ki (human glucagon receptor) of 146 nM, a Ki (human GLP-1 receptor) of 8.81 nM and a Ki (human GIP receptor) of 0.128 nM.

B4: Example 181 (peptide)
peptide: YXEGTXTSDXSIXLDEKAQXEFIXYLIEGGPSSGAPPPS
modifications: not printed (the compound name of this Example is missing from the table of Examples 6-287)
Work on B4 yielded a Ki (human glucagon receptor) of 413 nM, a Ki (human GLP-1 receptor) of 7.28 nM and a Ki (human GIP receptor) of 0.145 nM.

B5: Example 147 (peptide)
peptide: YXEGTXTSDYSIXLDEKAQXEFIXYLIEGGPSSGAPPPS
modifications: Aib2; αMeF(2F)6; αMeL13; K17((2-[2-(2-Amino-ethoxy)-ethoxy]-acetyl)2-(γ-Glu)-CO-(CH2)18-CO2H); Aib20; Aad24; C-terminal NH2
In the case of B5, the Ki (human glucagon receptor) is reported as 64.9 nM, the Ki (human GLP-1 receptor) is reported as 4.47 nM and the Ki (human GIP receptor) is reported as 0.0981 nM.

B6: Example 205 (peptide)
peptide: YXEGTXTSDXSIXLDEKAQXEFIXYLIEGGPSSGAPPPS
modifications: Aib2; αMeF(2F)6; 4Pal10; αMeL13; K17((2-[2-(2-Amino-ethoxy)-ethoxy]-acetyl)2-CO-(CH2)16-CO2H); Aib20; D-Glu24; C-terminal NH2
B6 gave a Ki (human glucagon receptor) of 438 nM, a Ki (human GLP-1 receptor) of 3.05 nM and a Ki (human GIP receptor) of 0.0367 nM.

B7: Example 182 (peptide)
peptide: YXEGTXTSDXSIXLDEKAQXEFIXYLIEGGPSSGAPPPS
modifications: not printed (the compound name of this Example is missing from the table of Examples 6-287)
B7 showed a Ki (human glucagon receptor) of 565 nM, a Ki (human GLP-1 receptor) of 4.64 nM and a Ki (human GIP receptor) of 0.0669 nM.

B8: Example 158 (peptide)
peptide: YXEGTXTSDXSIXLDEKAQXEFIEYLIEGGPSSGAPPPS
modifications: Aib2; αMeF(2F)6; 4Pal10; αMeL13; K17((2-[2-(2-Amino-ethoxy)-ethoxy]-acetyl)2-(γ-Glu)-CO-(CH2)18-CO2H); Aib20; C-terminal NH2
Work on B8 yielded a Ki (human glucagon receptor) of 285 nM, a Ki (human GLP-1 receptor) of 11.8 nM and a Ki (human GIP receptor) of 0.114 nM.

B9: Example 157 (peptide)
peptide: YXEGTXTSDXSIXLDEKAQXEFIEYLIEGGPSSGAPPPS
modifications: Aib2; αMeF(2F)6; 3Pal10; αMeL13; K17((2-[2-(2-Amino-ethoxy)-ethoxy]-acetyl)2-(γ-Glu)-CO-(CH2)18-CO2H); Aib20; C-terminal NH2
In the case of B9, the Ki (human glucagon receptor) is reported as 179 nM, the Ki (human GLP-1 receptor) is reported as 8.97 nM and the Ki (human GIP receptor) is reported as 0.0937 nM.

B10: Example 144 (peptide)
peptide: YXEGTXTSDYSIXLDKKAQHXFIEYLIEGGPSSGAPPPS
modifications: Aib2; αMeF6; αMeL13; K17((2-[2-(2-Amino-ethoxy)-ethoxy]-acetyl)2-(γ-Glu)-CO-(CH2)18-CO2H); Aib21; C-terminal NH2
For B10, the Ki (human glucagon receptor) was 77 nM, the Ki (human GLP-1 receptor) was 1.78 nM and the Ki (human GIP receptor) was 0.0341 nM.

B11: Example 143 (peptide)
peptide: YXEGTXTSDYSIXLDKKAQXXFIEYLIEGGPSSGAPPPS
modifications: Aib2; αMeF6; αMeL13; K17((2-[2-(2-Amino-ethoxy)-ethoxy]-acetyl)2-(γ-Glu)-CO-(CH2)18-CO2H); Aib20; Aib21; C-terminal NH2
For B11, the Ki (human glucagon receptor) was 65.5 nM, the Ki (human GLP-1 receptor) was 1.15 nM and the Ki (human GIP receptor) was 0.0304 nM.

B12: Example 202 (peptide)
peptide: YXEGTXTSDXSIXLDKKAQXEFIXYLIEGGPSSGAPPPS
modifications: Aib2; αMeF(2F)6; 4Pal10; αMeL13; K17((2-[2-(2-Amino-ethoxy)-ethoxy]-acetyl)-(γ-Glu)-(2-[2-(2-Amino-ethoxy)-ethoxy]-acetyl)-CO-(CH2)18-CO2H); Aib20; D-Glu24; C-terminal NH2
Work on B12 yielded a Ki (human glucagon receptor) of 394 nM, a Ki (human GLP-1 receptor) of 5.38 nM and a Ki (human GIP receptor) of 0.0579 nM.

B13: Example 203 (peptide)
peptide: YXEGTXTSDXSIXLDKKAQXEFIXYLIEGGPSSGAPPPS
modifications: Aib2; αMeF(2F)6; 4Pal10; αMeL13; K17((2-[2-(2-Amino-ethoxy)-ethoxy]-acetyl)2-(γ-Glu)-CO-(CH2)18-CO2H); Aib20; D-Glu24; C-terminal NH2
B13 showed a Ki (human glucagon receptor) of 845 nM, a Ki (human GLP-1 receptor) of 3.9 nM and a Ki (human GIP receptor) of 0.0337 nM.

B14: Example 10 (peptide)
peptide: Y[Aib]EGTFTSDYSILLDSIAQ[Aib]AFIK([AEEA-AEEA-γGlu-C20 diacid])YLLA[Aib]GPSSGAPPPS-NH2
modifications: N-terminus assumed
SMILES: CC[C@H](C)[C@H](NC(=O)[C@H](CO)NC(=O)[C@H](CC(=O)O)NC(=O)[C@H](CC(C)C)NC(=O)[C@H](CC(C)C)NC(=O)[C@@H](NC(=O)[C@H](CO)NC(=O)[C@H](Cc1ccc(O)cc1)NC(=O)[C@H](CC(=O)O)NC(=O)[C@H](CO)NC(=O)[C@@H](NC(=O)[C@H](Cc1ccccc1)NC(=O)[C@@H](NC(=O)CNC(=O)[C@H](CCC(=O)O)NC(=O)C(C)(C)NC(=O)[C@@H](N)Cc1ccc(O)cc1)[C@@H](C)O)[C@@H](C)O)[C@@H](C)CC)C(=O)N[C@@H](C)C(=O)N[C@@H](CCC(N)=O)C(=O)NC(C)(C)C(=O)N[C@@H](C)C(=O)N[C@@H](Cc1ccccc1)C(=O)N[C@H](C(=O)N[C@@H](CCCCNC(=O)COCCOCCNC(=O)COCCOCCNC(=O)CC[C@H](NC(=O)CCCCCCCCCCCCCCCCCCC(=O)O)C(=O)O)C(=O)N[C@@H](Cc1ccc(O)cc1)C(=O)N[C@@H](CC(C)C)C(=O)N[C@@H](CC(C)C)C(=O)N[C@@H](C)C(=O)NC(C)(C)C(=O)NCC(=O)N1CCC[C@H]1C(=O)N[C@@H](CO)C(=O)N[C@@H](CO)C(=O)NCC(=O)N[C@@H](C)C(=O)N1CCC[C@H]1C(=O)N1CCC[C@H]1C(=O)N1CCC[C@H]1C(=O)N[C@@H](CO)C(N)=O)[C@@H](C)CC
For B14, the Ki (human glucagon receptor) was 226 nM, the Ki (human GLP-1 receptor) was 9.33 nM and the Ki (human GIP receptor) was 0.109 nM.

B15: Example 11 (peptide)
peptide: Y[Aib]EGTFTSDYSILLDSIAQ[Aib]AFIEYLLK([AEEA-AEEA-γGlu-C20 diacid])[Aib]GPSSGAPPPS-NH2
modifications: N-terminus assumed
SMILES: CC[C@H](C)[C@H](NC(=O)[C@H](CO)NC(=O)[C@H](CC(=O)O)NC(=O)[C@H](CC(C)C)NC(=O)[C@H](CC(C)C)NC(=O)[C@@H](NC(=O)[C@H](CO)NC(=O)[C@H](Cc1ccc(O)cc1)NC(=O)[C@H](CC(=O)O)NC(=O)[C@H](CO)NC(=O)[C@@H](NC(=O)[C@H](Cc1ccccc1)NC(=O)[C@@H](NC(=O)CNC(=O)[C@H](CCC(=O)O)NC(=O)C(C)(C)NC(=O)[C@@H](N)Cc1ccc(O)cc1)[C@@H](C)O)[C@@H](C)O)[C@@H](C)CC)C(=O)N[C@@H](C)C(=O)N[C@@H](CCC(N)=O)C(=O)NC(C)(C)C(=O)N[C@@H](C)C(=O)N[C@@H](Cc1ccccc1)C(=O)N[C@H](C(=O)N[C@@H](CCC(=O)O)C(=O)N[C@@H](Cc1ccc(O)cc1)C(=O)N[C@@H](CC(C)C)C(=O)N[C@@H](CC(C)C)C(=O)N[C@@H](CCCCNC(=O)COCCOCCNC(=O)COCCOCCNC(=O)CC[C@H](NC(=O)CCCCCCCCCCCCCCCCCCC(=O)O)C(=O)O)C(=O)NC(C)(C)C(=O)NCC(=O)N1CCC[C@H]1C(=O)N[C@@H](CO)C(=O)N[C@@H](CO)C(=O)NCC(=O)N[C@@H](C)C(=O)N1CCC[C@H]1C(=O)N1CCC[C@H]1C(=O)N1CCC[C@H]1C(=O)N[C@@H](CO)C(N)=O)[C@@H](C)CC
For B15, the Ki (human glucagon receptor) was 174 nM, the Ki (human GLP-1 receptor) was 15.7 nM and the Ki (human GIP receptor) was 0.226 nM.

B16: Example 133 (peptide)
peptide: [Desaminotyrosyl][Aib]EGT[αMeF]TSDYSI[Aib]LDEK([AEEA-AEEA-γGlu-C20 diacid])AQ[Aib]AFIEYLIEGGPSSGAPPPS-NH2
SMILES: CC[C@H](C)[C@H](NC(=O)[C@H](CC(C)C)NC(=O)[C@H](Cc1ccc(O)cc1)NC(=O)[C@H](CCC(=O)O)NC(=O)[C@@H](NC(=O)[C@H](Cc1ccccc1)NC(=O)[C@H](C)NC(=O)C(C)(C)NC(=O)[C@H](CCC(N)=O)NC(=O)[C@H](C)NC(=O)[C@H](CCCCNC(=O)COCCOCCNC(=O)COCCOCCNC(=O)CC[C@H](NC(=O)CCCCCCCCCCCCCCCCCCC(=O)O)C(=O)O)NC(=O)[C@H](CCC(=O)O)NC(=O)[C@H](CC(=O)O)NC(=O)[C@H](CC(C)C)NC(=O)C(C)(C)NC(=O)[C@@H](NC(=O)[C@H](CO)NC(=O)[C@H](Cc1ccc(O)cc1)NC(=O)[C@H](CC(=O)O)NC(=O)[C@H](CO)NC(=O)[C@@H](NC(=O)[C@](C)(Cc1ccccc1)NC(=O)[C@@H](NC(=O)CNC(=O)[C@H](CCC(=O)O)NC(=O)C(C)(C)NC(=O)CCc1ccc(O)cc1)[C@@H](C)O)[C@@H](C)O)[C@@H](C)CC)[C@@H](C)CC)C(=O)N[C@@H](CCC(=O)O)C(=O)NCC(=O)NCC(=O)N1CCC[C@H]1C(=O)N[C@@H](CO)C(=O)N[C@@H](CO)C(=O)NCC(=O)N[C@@H](C)C(=O)N1CCC[C@H]1C(=O)N1CCC[C@H]1C(=O)N1CCC[C@H]1C(=O)N[C@@H](CO)C(N)=O
With B16 the Ki (human glucagon receptor) was 216 nM, the Ki (human GLP-1 receptor) was 11.4 nM and the Ki (human GIP receptor) was 0.157 nM.
